In the supplement of paper PMC10567573 one finds protein stability index data, which are given here for 94 variants.

B1: ESR2 (parent)
chain: KSCQACRLRKCYEVGMVKCGSRRE
B2: FAM189A2 (parent)
chain: PRCDLVDLGEGKICFCCEEFQPAK
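Further: lentivirally expressed fusions sorted by FACS into six bins by GFP to DsRed ratio, PSI derived from sequencing read proportions per bin multiplied by bin number.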

Variants of B1 are the subject of the first data set. Briefly: protein stability index of a GFP-peptide fusion (GPS, HEK-293T) (PSI 1-6); higher = more stable. Conditions: c terminus: a fixed tail appended.
As to KFCQACRLRKCYEVGMVKCGSRRE, the protein stability index was 1.45.

For KDCQACRLRKCYEVGMVKCGSRRE, the protein stability index was determined as 1.98.

As for KKCQACRLRKCYEVGMVKCGSRRE, the protein stability index is 2.02.

As to KWCQACRLRKCYEVGMVKCGSRRE, the protein stability index amounted to 1.91.

Consider KHCQACRLRKCYEVGMVKCGSRRE, for which the protein stability index was 2.23.

The variants in a further data set derive from B2. The data set is described as above. As to conditions: c terminus: a fixed tail appended.
Regarding PRCDLVDLGEGKICFCCEENQPAK, the protein stability index was 3.86.

Turning to PRCDLVDLGEGKICFCCEELQPAK, the protein stability index was 2.42.

On to PRCDLVDLGEGKICFCCEEIQPAK, for which the protein stability index was determined as 3.6.

On to PRCDLVDLGEGKICFCCEEMQPAK, for which the protein stability index is 3.16.

As for PRCDLVDLGEGKICFCCEEPQPAK, the protein stability index amounted to 4.

Turning to PRCDLVDLGEGKICFCCEEKQPAK, the protein stability index was determined as 3.89.

For PRCDLVDLGEGKICFCCEETQPAK, the protein stability index turned out to be 3.97.

Regarding PRCDLVDLGEGKICFCCEEHQPAK, the protein stability index worked out at 4.34.

Turning to PRCDLVDLGEGKICFCCEESQPAK, the protein stability index was found to be 3.89.

Turning to PRCDLVDLGEGKICFCCEEYQPAK, the protein stability index came out at 3.1.

As to PRCDLVDLGEGKICFCCEERQPAK, the protein stability index was 4.13.

On to PRCDLVDLGEGKICFCCEEQQPAK, for which the protein stability index came out at 2.59.

For the variant PRCDLVDLGEGKICFCCEEWQPAK, the protein stability index amounted to 2.4.

Consider PRCDLVDLGEGKICFCCEEVQPAK, for which the protein stability index was 3.75.

For PRCDLVDLGEGKICFCCEEFAPAK, the protein stability index was determined as 3.44.

PRCDLVDLGEGKICFCCEEFNPAK: the protein stability index was 3.14.

For PRCDLVDLGEGKICFCCEEFSPAK, the protein stability index is 2.65.

Take PRCDLVDLGEGKICFCCEEFVPAK: the protein stability index is 2.66.

On to PRCDLVDLGEGKICFCCEEFKPAK, for which the protein stability index turned out to be 2.79.

For the variant PRCDLVDLGEGKICFCCEEFPPAK, the protein stability index came to 2.86.

For the variant PRCDLVDLGEGKICFCCEEFCPAK, the protein stability index came to 4.17.

In the case of PRCDLVDLGEGKICFCCEEFMPAK, the protein stability index is 2.24.

In the case of PRCDLVDLGEGKICFCCEEFEPAK, the protein stability index was 3.87.

Regarding PRCDLVDLGEGKICFCCEEFTPAK, the protein stability index was 3.55.

As to PRCDLVDLGEGKICFCCEEFWPAK, the protein stability index was found to be 2.48.

As for PRCDLVDLGEGKICFCCEEFGPAK, the protein stability index stood at 3.07.

On to PRCDLVDLGEGKICFCCEEFIPAK, for which the protein stability index is 2.68.

Take PRCDLVDLGEGKICFCCEEFYPAK: the protein stability index amounted to 2.33.

For the variant PRCDLVDLGEGKICFCCEEFHPAK, the protein stability index is 3.1.

In the case of PRCDLVDLGEGKICFCCEEFFPAK, the protein stability index amounted to 2.24.

As to PRCDLVDLGEGKICFCCEEFRPAK, the protein stability index was found to be 2.44.

With PRCDLVDLGEGKICFCCEEFLPAK, the protein stability index amounted to 2.65.

For the variant PRCDLVDLGEGKICFCCEEFDPAK, the protein stability index worked out at 3.61.

With PRCDLVDLGEGKICFCCEEFQPRK, the protein stability index was 2.24.

Consider PRCDLVDLGEGKICFCCEEFQPEK, for which the protein stability index is 4.35.

For the variant PRCDLVDLGEGKICFCCEEFQPGK, the protein stability index was 2.72.

On to PRCDLVDLGEGKICFCCEEFQPYK, for which the protein stability index turned out to be 2.28.

With PRCDLVDLGEGKICFCCEEFQPFK, the protein stability index turned out to be 2.85.

As for PRCDLVDLGEGKICFCCEEFQPWK, the protein stability index was determined as 3.56.

For the variant PRCDLVDLGEGKICFCCEEFQPDK, the protein stability index amounted to 3.12.

Consider PRCDLVDLGEGKICFCCEEFQPNK, for which the protein stability index stood at 3.15.

For the variant PRCDLVDLGEGKICFCCEEFQPSK, the protein stability index was found to be 2.66.

Consider PRCDLVDLGEGKICFCCEEFQPTK, for which the protein stability index was 2.79.

On to PRCDLVDLGEGKICFCCEEFQPQK, for which the protein stability index came to 3.5.

In the case of PRCDLVDLGEGKICFCCEEFQPPK, the protein stability index was 2.44.

For PRCDLVDLGEGKICFCCEEFQPMK, the protein stability index came out at 1.96.

As for PRCDLVDLGEGKICFCCEEFQPHK, the protein stability index is 3.07.

Take PRCDLVDLGEGKICFCCEEFQPCK: the protein stability index is 3.98.

Consider PRCDLVDLGEGKICFCCEEFQPIK, for which the protein stability index came to 2.65.

PRCDLVDLGEGKICFCCEEFQPVK: the protein stability index came to 3.29.

Turning to PRCDLVDLGEGKICFCCEEFQPKK, the protein stability index was 3.36.

PRCDLVDLGEGKICFCCEEFQPLK: the protein stability index turned out to be 3.1.

Regarding PRCDLVDLGEGKICFCCEEFQPAN, the protein stability index is 3.37.

Take PRCDLVDLGEGKICFCCEEFQPAA: the protein stability index was found to be 2.66.

On to PRCDLVDLGEGKICFCCEEFQPAM, for which the protein stability index was found to be 2.32.

As to PRCDLVDLGEGKICFCCEEFQPAL, the protein stability index was found to be 3.26.

Turning to PRCDLVDLGEGKICFCCEEFQPAY, the protein stability index is 2.52.

As for PRCDLVDLGEGKICFCCEEFQPAI, the protein stability index was found to be 2.48.

On to PRCDLVDLGEGKICFCCEEFQPAC, for which the protein stability index amounted to 3.39.

For the variant PRCDLVDLGEGKICFCCEEFQPAF, the protein stability index came to 2.23.

In the case of PRCDLVDLGEGKICFCCEEFQPAP, the protein stability index stood at 3.05.

Turning to PRCDLVDLGEGKICFCCEEFQPAT, the protein stability index came out at 3.

PRCDLVDLGEGKICFCCEEFQPAQ: the protein stability index was found to be 2.25.

For PRCDLVDLGEGKICFCCEEFQPAR, the protein stability index worked out at 2.89.

For PRCDLVDLGEGKICFCCEEFQPAH, the protein stability index turned out to be 2.52.

Turning to PRCDLVDLGEGKICFCCEEFQPAG, the protein stability index amounted to 3.1.

In the case of PRCDLVDLGEGKICFCCEEFQPAS, the protein stability index was determined as 2.72.

With PRCDLVDLGEGKICFCCEEFQPAW, the protein stability index was determined as 1.99.

Consider PRCDLVDLGEGKICFCCEEFQPAV, for which the protein stability index came to 3.06.

Regarding PRCDLVDLGEGKICFCCEEFQPAE, the protein stability index was determined as 3.81.

As to PRCDLVDLGEGKICFCCEEFQPAD, the protein stability index was found to be 3.18.

For the variant PRCDLVDLGEGKICFCCEEFQCAK, the protein stability index turned out to be 3.51.

In the case of PRCDLVDLGEGKICFCCEEFQQAK, the protein stability index came out at 3.51.

Turning to PRCDLVDLGEGKICFCCEEFQEAK, the protein stability index was 3.49.

With PRCDLVDLGEGKICFCCEEFQDAK, the protein stability index is 4.31.

For PRCDLVDLGEGKICFCCEEFQLAK, the protein stability index amounted to 2.74.

Consider PRCDLVDLGEGKICFCCEEFQIAK, for which the protein stability index was determined as 2.75.

In the case of PRCDLVDLGEGKICFCCEEFQKAK, the protein stability index is 3.42.

With PRCDLVDLGEGKICFCCEEFQRAK, the protein stability index was found to be 2.51.

In the case of PRCDLVDLGEGKICFCCEEFQFAK, the protein stability index was 3.12.

As to PRCDLVDLGEGKICFCCEEFQHAK, the protein stability index stood at 3.13.

With PRCDLVDLGEGKICFCCEEFQMAK, the protein stability index was determined as 3.07.

For PRCDLVDLGEGKICFCCEEFQVAK, the protein stability index is 2.69.

Turning to PRCDLVDLGEGKICFCCEEFQYAK, the protein stability index was 3.06.

As for PRCDLVDLGEGKICFCCEEFQGAK, the protein stability index was determined as 3.86.

Turning to PRCDLVDLGEGKICFCCEEFQAAK, the protein stability index was 3.31.

Take PRCDLVDLGEGKICFCCEEFQWAK: the protein stability index turned out to be 3.08.

For PRCDLVDLGEGKICFCCEEFQTAK, the protein stability index was 3.23.

For the variant PRCDLVDLGEGKICFCCEEFQNAK, the protein stability index amounted to 3.28.
